Reference: patent US20230265151A1, “GIP/GLP1 CO-AGONIST COMPOUNDS” (priority 2020, published 2023)
Substitutions are numbered along the chain they refer to. *1 amine or outer side, *2 acyl side, *3 side chain or, on linkers, in order; H or OH if unused. Where no end group is shown, it is not given here. Side-chain parts run from the residue outwards. [ ]: non-standard residue; d: D form. The star is where a group is joined. αMePhe(2-F) = C[C@](N)(Cc1ccccc1F)C(=O)O; γGlu = O=C(O)[C@H](CCC(=O)[*:2])N[*:1]; C14 diacid = O=C(O)CCCCCCCCCCCCC(=O)*; αMeY = C[C@](N)(Cc1ccc(O)cc1)C(=O)O; αMeF = C[C@](N)(Cc1ccccc1)C(=O)O; αMeL = CC(C)C[C@](C)(N)C(=O)O; Orn = NCCC[C@H](N)C(=O)O; AEEA = NCCOCCOCC(=O)O; Aib = CC(C)(N)C(=O)O

T1: human GIP receptor (human, UniProt P48546 22-466)
T1 sequence (looked up): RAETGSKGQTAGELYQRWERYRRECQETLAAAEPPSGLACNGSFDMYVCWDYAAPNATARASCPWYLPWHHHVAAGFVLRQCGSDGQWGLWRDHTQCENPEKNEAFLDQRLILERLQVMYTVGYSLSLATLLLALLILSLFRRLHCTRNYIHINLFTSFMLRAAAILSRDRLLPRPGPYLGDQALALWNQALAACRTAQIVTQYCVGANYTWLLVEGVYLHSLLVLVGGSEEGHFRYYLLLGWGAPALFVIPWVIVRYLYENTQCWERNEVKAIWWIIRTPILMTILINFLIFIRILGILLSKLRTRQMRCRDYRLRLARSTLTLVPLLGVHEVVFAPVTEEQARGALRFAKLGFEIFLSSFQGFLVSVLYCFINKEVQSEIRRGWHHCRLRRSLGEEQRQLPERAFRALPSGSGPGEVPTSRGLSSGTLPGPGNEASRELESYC

B1: Example 133 (peptide)
peptide: YXEGTXTSDXSIXLDXKAQXEFIXXLIKGGPSSGAPPPS
modifications: Aib2, αMeF(2F)6, 4Pal10, αMeL13, Orn16, Aib20, D-Glu24, αMeY25, K17 and K28: K(AEEA2-(γ-Glu)-(4-(4-tert-butylphenyl)butanoyl)), C-terminal NH2
B2: Example 137 (peptide)
peptide: B1 peptide with E21K, K28E
modifications: Aib2, αMeF(2F)6, 4Pal10, αMeL13, Orn16, Aib20, D-Glu24, αMeY25, K17 and K21: K(AEEA2-(γ-Glu)-CO-(CH2)10-CH3), C-terminal NH2
B3: Example 11 (peptide)
peptide: B1 peptide with K28E, P31K
modifications: Aib2, αMeF(2F)6, 4Pal10, αMeL13, Orn16, Aib20, D-Glu24, αMeY25, K17 and K31: K(AEEA-(γ-Glu)-CO-(CH2)12-CO2H), C-terminal NH2
B4: Example 116 (peptide)
peptide: B1 peptide with X24K, K28E
modifications: Aib2, αMeF(2F)6, Ac5c10, αMeL13, Orn16, Aib20, αMeY25, K17 and K24: K(AEEA2-(γ-Glu)-CO-(CH2)12-CO2H), C-terminal NH2
B5: Example 138 (peptide)
peptide: B1 peptide with X24K, K28E
modifications: Aib2, αMeF(2F)6, 4Pal10, αMeL13, Orn16, Aib20, αMeY25, K17 and K24: K(AEEA2-(γ-Glu)-CO-(CH2)10-CH3), C-terminal NH2
B6: Example 121 (peptide)
peptide: B1 peptide with S11X, F22X, X24K, K28E
modifications: Aib2, αMeF(2F)6, 4Pal10, Aib11, αMeL13, Orn16, Aib20, αMeF22, αMeF25, K17 and K24: K(AEEA2-(γ-Glu)-CO-(CH2)12-CO2H), C-terminal NH2
B7: Example 122 (peptide)
peptide: B1 peptide with X10V, F22X, X24K, K28E
modifications: Aib2, αMeF(2F)6, αMeL13, Orn16, Aib20, αMeF22, αMeF25, K17 and K24: K(AEEA2-(γ-Glu)-CO-(CH2)12-CO2H), C-terminal NH2
B8: Example 125 (peptide)
peptide: B1 peptide with K28E, P31K
modifications: Aib2, αMeF(2F)6, 4Pal10, αMeL13, Orn16, Aib20, D-Glu24, αMeY25, K17 and K31: K(AEEA2-(γ-Glu)-(7-(4-carboxyphenoxy)heptanoyl)), C-terminal NH2
B9: Example 131 (peptide)
peptide: B1 peptide with E21K, K28E
modifications: Aib2, αMeF(2F)6, 4Pal10, αMeL13, Orn16, Aib20, D-Glu24, αMeY25, K17 and K21: K(AEEA2-(γ-Glu)-(4-(4-tert-butylphenyl)butanoyl)), C-terminal NH2
B10: Example 117 (peptide)
peptide: B1 peptide with S11X, F22X, X24K, K28E
modifications: Aib2, αMeF(2F)6, 4Pal10, Aib11, αMeL13, Orn16, Aib20, αMeF22, αMeY25, K17 and K24: K(AEEA2-(γ-Glu)-CO-(CH2)12-CO2H), C-terminal NH2
B11: Example 124 (peptide)
peptide: B1 peptide with F22X, X24K, K28E
modifications: Aib2, αMeF(2F)6, Ac5c10, αMeL13, Orn16, Aib20, αMeF22, αMeF25, K17 and K24: K(AEEA2-(γ-Glu)-CO-(CH2)12-CO2H), C-terminal NH2
B12: Example 132 (peptide)
peptide: B1 peptide with X24K, K28E
modifications: Aib2, αMeF(2F)6, 4Pal10, αMeL13, Orn16, Aib20, αMeY25, K17 and K24: K(AEEA2-(γ-Glu)-(4-(4-tert-butylphenyl)butanoyl)), C-terminal NH2
B13: Example 130 (peptide)
peptide: B1 peptide with X10K, K28E
modifications: Aib2, αMeF(2F)6, αMeL13, Orn16, Aib20, D-Glu24, αMeY25, K10 and K17: K(AEEA2-(γ-Glu)-(4-(4-tert-butylphenyl)butanoyl)), C-terminal NH2
B14: Example 13 (peptide)
peptide: B1 peptide with K28E, P31K
modifications: Aib2, αMeF(2F)6, 4Pal10, αMeL13, Orn16, Aib20, D-Glu24, αMeY25, K17 and K31: K(AEEA-(γ-Glu)-CO-(CH2)14-CH3), C-terminal NH2
B15: Example 112 (peptide)
peptide: Y[Aib]EGT[αMePhe(2-F)]TSDK([AEEA-AEEA-γGlu-C14 diacid])SI[αMeL]LD[Orn]IAQ[Aib]E[αMeF]I[dE][αMeY]LIEGGK([AEEA-AEEA-γGlu-C14 diacid])SSGAPPPS-NH2
modifications: N-terminus assumed
SMILES: CC[C@H](C)[C@H](NC(=O)[C@H](CCCN)NC(=O)[C@H](CC(=O)O)NC(=O)[C@H](CC(C)C)NC(=O)[C@](C)(CC(C)C)NC(=O)[C@@H](NC(=O)[C@H](CO)NC(=O)[C@H](CCCCNC(=O)COCCOCCNC(=O)COCCOCCNC(=O)CC[C@H](NC(=O)CCCCCCCCCCCCC(=O)O)C(=O)O)NC(=O)[C@H](CC(=O)O)NC(=O)[C@H](CO)NC(=O)[C@@H](NC(=O)[C@](C)(Cc1ccccc1F)NC(=O)[C@@H](NC(=O)CNC(=O)[C@H](CCC(=O)O)NC(=O)C(C)(C)NC(=O)[C@@H](N)Cc1ccc(O)cc1)[C@@H](C)O)[C@@H](C)O)[C@@H](C)CC)C(=O)N[C@@H](C)C(=O)N[C@@H](CCC(N)=O)C(=O)NC(C)(C)C(=O)N[C@@H](CCC(=O)O)C(=O)N[C@@](C)(Cc1ccccc1)C(=O)N[C@H](C(=O)N[C@H](CCC(=O)O)C(=O)N[C@@](C)(Cc1ccc(O)cc1)C(=O)N[C@@H](CC(C)C)C(=O)N[C@H](C(=O)N[C@@H](CCC(=O)O)C(=O)NCC(=O)NCC(=O)N[C@@H](CCCCNC(=O)COCCOCCNC(=O)COCCOCCNC(=O)CC[C@H](NC(=O)CCCCCCCCCCCCC(=O)O)C(=O)O)C(=O)N[C@@H](CO)C(=O)N[C@@H](CO)C(=O)NCC(=O)N[C@@H](C)C(=O)N1CCC[C@H]1C(=O)N1CCC[C@H]1C(=O)N1CCC[C@H]1C(=O)N[C@@H](CO)C(N)=O)[C@@H](C)CC)[C@@H](C)CC

The binders below were run against T1, human GIP receptor (assay: cell-based or functional assay).
For B1, the “EC50, cAMP” value was 0.018 nM.
For B2, the “EC50, cAMP” value was 0.0116 nM.
B3 was tested, and the “EC50, cAMP” value was 0.0135 nM.
With B4 the “EC50, cAMP” value was 0.137 nM and the “Emax, cAMP” value was 115%.
B5 was tested, and the “EC50, cAMP” value was 0.0197 nM.
B6 was tested, and the “EC50, cAMP” value was 0.0271 nM and the “Emax, cAMP” value was 92.8%.
With B7 the “EC50, cAMP” value was 0.064 nM.
In the case of B8, the “EC50, cAMP” value is reported as 0.0547 nM.
In the case of B9, the “EC50, cAMP” value is reported as 0.0156 nM.
In the case of B10, the “EC50, cAMP” value is reported as 0.0352 nM and the “Emax, cAMP” value is reported as 96.4%.
In the case of B11, the “EC50, cAMP” value is reported as 0.1 nM.
B12 was tested, and the “EC50, cAMP” value was 0.0208 nM.
In the case of B13, the “EC50, cAMP” value is reported as 0.0266 nM and the “Emax, cAMP” value is reported as 94.7%.
With B14 the “EC50, cAMP” value was 0.00597 nM.
With B15 the “EC50, cAMP” value was 0.0229 nM and the “Emax, cAMP” value was 93.6%.
For Y[Aib]EGT[αMePhe(2-F)]TSDV[Aib]I[αMeL]LD[Orn]K([AEEA-AEEA-γGlu-C14 diacid])AQ[Aib]EFIK([AEEA-AEEA-γGlu-C14 diacid])[αMeY]LIEGGPSSGAPPPS-NH2 [Example 115], the “EC50, cAMP” value was 0.103 nM.

Each binder was assayed against human GLP-1 receptor (human, UniProt P43220 24-463) (assay: cell-based or functional assay).
For B1, the “EC50, cAMP” value was 0.258 nM.
For B2, the “EC50, cAMP” value was 0.134 nM.
For B3, the “EC50, cAMP” value was 0.511 nM.
With B4 the “EC50, cAMP” value was 0.197 nM.
For B5, the “EC50, cAMP” value was 0.267 nM.
B6 was tested, and the “EC50, cAMP” value was 8.95 nM.
With B7 the “EC50, cAMP” value was 0.41 nM and the “Emax, cAMP” value was 94.3%.
B8 was tested, and the “EC50, cAMP” value was 2.78 nM.
B9 was tested, and the “EC50, cAMP” value was 0.19 nM.
In the case of B10, the “EC50, cAMP” value is reported as 5.6 nM and the “Emax, cAMP” value is reported as 98.2%.
In the case of B11, the “EC50, cAMP” value is reported as 1.24 nM and the “Emax, cAMP” value is reported as 93.3%.
In the case of B12, the “EC50, cAMP” value is reported as 0.182 nM.
B13 was tested, and the “EC50, cAMP” value was 0.204 nM and the “Emax, cAMP” value was 100%.
For B14, the “EC50, cAMP” value was 0.0214 nM.
With B15 the “EC50, cAMP” value was 2.26 nM.
In the case of Y[Aib]EGT[αMePhe(2-F)]TSDV[Aib]I[αMeL]LD[Orn]K([AEEA-AEEA-γGlu-C14 diacid])AQ[Aib]EFIK([AEEA-AEEA-γGlu-C14 diacid])[αMeY]LIEGGPSSGAPPPS-NH2 [Example 115], the “EC50, cAMP” value is reported as 0.16 nM and the “Emax, cAMP” value is reported as 91.6%.

What follows are binders tested against human glucagon receptor (human, UniProt P47871 26-477) (assay: cell-based or functional assay).
B1 was tested, and the “EC50, cAMP” value was greater than 9950 nM.
With B2 the “EC50, cAMP” value was greater than 9950 nM.
B3 was tested, and the “EC50, cAMP” value was greater than 9950 nM.
For B4, the “EC50, cAMP” value was greater than 9950 nM.
For B5, the “EC50, cAMP” value was greater than 9950 nM.
With B6 the “EC50, cAMP” value was greater than 9950 nM.
For B7, the “EC50, cAMP” value was greater than 9950 nM.
B8 was tested, and the “EC50, cAMP” value was greater than 9950 nM.
B9 was tested, and the “EC50, cAMP” value was greater than 9950 nM.
For B10, the “EC50, cAMP” value was greater than 9950 nM.
B11 was tested, and the “EC50, cAMP” value was greater than 9950 nM.
For B12, the “EC50, cAMP” value was greater than 9950 nM.
In the case of B13, the “EC50, cAMP” value is reported as greater than 9950 nM.
B14 was tested, and the “EC50, cAMP” value was greater than 9950 nM.
With B15 the “EC50, cAMP” value was greater than 9950 nM.
Y[Aib]EGT[αMePhe(2-F)]TSDV[Aib]I[αMeL]LD[Orn]K([AEEA-AEEA-γGlu-C14 diacid])AQ[Aib]EFIK([AEEA-AEEA-γGlu-C14 diacid])[αMeY]LIEGGPSSGAPPPS-NH2 [Example 115] was tested, and the “EC50, cAMP” value was greater than 9950 nM.
